Patent US20080311122A1, “Antagonists of Hmgb1 and/or Rage and Methods of Use Thereof” (Medimmune, LLC, priority 2005, published 2008)
“Also recorded” adds a separate entry of the source.

B1: E11: human anti-HMG1 antibody, recognizes HMG1 A-Box; VL/VH aa SEQ ID NO: 24/26 (antibody, listed as Homo sapiens, V domains shown)
VH: EVQLLESGGGLVQPGGSLRLSCAASGFTFSRYQMNWVRQAPGKGLEWVSSISPSGGHTHYADSVKGRFTISRDNSKNTLYLQMNSLRAEDTAVYYCAKDGRQGKISTVDHWGQGTLVTVSS
VL: AQDIQMTQSPGTLSLSPGERATLSCRASQSVRSNFLAWYQQKPGQAPRLLIYGASRRASGIPDRFSGSGFGADFTLSISRLEPEDFAVYYCQQYGSSPNTFGQGSRVEIK
B2: S16: human anti-HMG1 antibody, ATCC PTA-6259; VL/VH aa SEQ ID NO: 13/15 (antibody, listed as Homo sapiens, V domains shown)
VH: EVQLLESGGGLVQPGGSLRLSCAASGFTFSWYSMLWVRQAPGKGLEWVSYISPSGGFTNYADSVKGRFTISRDNSKNTLYLQMNSLRAEDTAVYYCARWDYNSGWYYDHWGQGTLVTVSS
VL: AQDIQMTQSPDTLSLSPGERATLSCRASQSVNSRNLAWYQQKPGQAPRLLIYGASTRATGIPDRFSGSVSGTEFTLTISSLQPDDFATYYCQQYNSYFTFGQGTKLEIK
B3: G20: human anti-HMG1 antibody; VL/VH aa SEQ ID NO: 46/48 (antibody, listed as Homo sapiens, V domains shown)
VH: EVQLLESGGGLVQPGGSLRLSCAASGFTFSWYDMFWVRQAPGKGLEWVSWISPSGGYTKYADSVKGRFTISRDNSKNTLYLQMNSLRAEDTAMYYCARSGLDYYDSSGYLDAFDIWGQGTMVTVSS
VL: AQDIQMTQSPSSVSASVGDRVTITCRASQDVSIWLAWYQQKPGKAPKLLIFGASRLQSGVPSRFSGSRSGADFTLTIDSVQPEDFASYYCQQADSFPLTFGGGTKVEIK
B4: S10: human anti-HMG1 antibody; VL/VH aa SEQ ID NO: 58/60 (antibody, listed as Homo sapiens, V domains shown)
VH: EVQLLESGGGLVQPGGSLRLSCAASGFTFSWYDMWWVRQAPGKGLEWVSWIVPSGGITAYADSVKGRFTISRDNSKNTLYLQMNSLRAEDTATYYCARGNYGPSPFDYWGQGTLVTVSS
VL: AQDIQMTQSPGTLSLSPGERATLSCRATQSVRKNFLAWYQQKPGQAPRLLIYDASSRATGIPDRFSGSGSGTDFTLTISRLEPEDFAVYYCQQYGNSPIIFGQGTRLEIK
B5: S12: human anti-HMG1 antibody; VL/VH aa SEQ ID NO: 62/64 (antibody, listed as Homo sapiens, V domains shown)
VH: EVQLLESGGGLVQPGGSLRLSCAASGFTFSKYIMHWVRQAPGKGLEWVSGIVPSGGLTEYADSVKGRFTISRDNSKNTLYLQMNSLRAEDTATYYCAKEIFGQFDYWGQGTLVTVSS
VL: AQSALTQPPSVSAAPRQRVTISCSGSTSNIGNNAVTWYQYFPGKAPKLLIYSDNQRPSGVPDRFSGSKSGTSASLAITGLQAEDEADYYCQSYDRGLSVVFGGGTKLTVL
B6: G9: human anti-HMG1 antibody; VL/VH aa SEQ ID NO: 34/36 (antibody, listed as Homo sapiens, V domains shown)
VH: EVQLLESGGGLVQPGGSLRLSCAASGFTFSSYDMFWVRQAPGKGLEWVSRISPSGGYTYYADSVKGRFTISRDNSKNTLYLQMNSLRAEDTAVYYCARLRYFDSRGYAFDIWGQGTMVTVSS
VL: AQDIQMTQSPGTLSLSPGERATLSCRASQSVRSSYLAWYQQKPGQAPRLLIYGASTRATGIPDRFSGSGSGTDFTLTISRLEPEDFAVYYCQQYGTSRWTFGQGTKVEIK
B7: G2: human anti-HMG1 IgG1 from Fab phage display library; VL/VH aa SEQ ID NO: 30/32 (antibody, listed as Homo sapiens, V domains shown)
VH: EVQLLESGGGLVQPGGSLRLSCAASGFTFSWYKMQWVRQAPGKGLEWVSGISPSGGSTAYADSVKGRFTISRDNSKNTLYLQMNSLRAEDTAVYYCAKMGLFNTGNSYVDYWGQGTLVTVSS
VL: AQSELTQPPSVSEAPGQRVTISCSGSTSNIGNNAVIWYQQLPGKAPKLLIYYDDLLPSGVSDRFSGSKSGTSGSLAISGLQSEDEADYYCASWDDNLNGPLFGGGTKLTVL

Key:
[1] = tested on: native activated HMG1 stimulated IL-6 release from human PBMCs; experiment: Inhibition of cytokine release from PBMCs, native activated HMG1; assay type: cell-based
Protocol: Inhibition of Cytokine Release: Human peripheral blood mononuclear cells (PBMCs) were isolated from the peripheral blood of healthy volunteers by a density gradient centrifugation. Freshly drawn heparinized whole blood was mixed with two volume of PBS. The diluted blood was gently layered on the surface of Histopaque-1077 (Sigma-Aldrich) and centrifuged at 400×g, at RT for 30 minute. PBMCs were collected from the interface between the plasma and the density gradient solution. After washing in PBS 3×, the purified PBMCs were resuspended in RPMI-1640 medium (GIBCO BRL) containing 100 U/ml penicillin, 100 μg/ml streptomycin and […] β-mercaptoethanol. 1×10^5 of cells was added in each well of 96-well cell culture plates.
The PBMCs were incubated for two hours at 37° C. with 5% CO2. recombinant HMG1, at 4 μg/ml, or native activated HMG1 from 2.4×10^5 LPS stimulated THP-1 cells, and different concentrations of human anti-HMGB-1 monoclonal antibodies, a RAGE-FC fusion protein or an HMG1 A-box-Fc fusion protein were added into each well. The culture media was supplemented with 8 U/ml (1 μg/ml) Polymyxin B sulphate (Sigma-Aldrich) to inhibit potential endotoxin. PBMCs from the same donor without stimulation with HMG1 were used as controls. The cell-free culture media were harvested after 14 hours and stored at −20° C.
The culture media were analyzed for inflammatory cytokines using Beadlyte human multi-cytokine flex kit from Upstate by Luminex 100 (Luminex Corp.). Proinflammatory cytokines TNF-α, IL-6, IL-1β and IL-12 (p40) were measured for cells stimulated with recombinant HMG1. In addition, TNF-α, IL-6, IL-1β and IL-8 were measured for cells stimulated with native activated HMG1.
Cytokine release data is presented as mean of triplicates±standard deviations. IC50 for anti-HMGB1 monoclonal antibody is defined as the concentration of antibody required yielding one-half maximal inhibition of the cytokine release from PBMCs stimulated by HMGB1. It was calculated by PRISM program.

HMG1 peptides [2] = biological target: T1, HMG1 peptides (Homo sapiens, UniProt P09429); experiment: HMG1 B Box and peptide mapping ELISA; assay type: binding; conditions: B Box peptide ELISA
T1 sequence (P09429 91-169 P98L): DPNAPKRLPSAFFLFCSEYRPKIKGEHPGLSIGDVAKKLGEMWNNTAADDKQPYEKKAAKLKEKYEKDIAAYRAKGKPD
Protocol: (§1) HMG1 B Box and Peptide Mapping: Individual wells of a 96-well immunoplate (EIA/RIA plate, High binding, Costar) were coated with HMG1 B Box peptide amino acids 91-169 (FIG. 5A) or amino acids 150-183 (FIG. 5B) at 10 μg/ml in PBS at 4° C. overnight. The plate was then blocked with 4% milk powder dissolved in PBS at 37° C. for 1 hour. The blocking solution was removed and replaced with human anti-HMG1 antibodies at various concentrations (see FIGS. 5A-B). The plate was then washed (ELX-405 Plate washer, BIO-TEK) and secondary antibody (anti-human IgG-HRP, PIERCE) was added at a final concentration of 1:125,000 at 37° C. for 1 hour. HRP activity was detected with Sureblue HRP substrate (KPL). Plates were read at 450 nm using a Kinetic Microplate Reader (Molecular Devices). To obtain more detailed peptide mapping information, similar ELISA assays were performed using 16 biotinylated overlapping peptides spanning the HMGB1 protein from amino acid 1 to 215 as follows, maxisorp microtiter plate was coated with 2 μg/ml of NeutroAvidin (Pierce) overnight at 4° C. After washing and blocking with 1% BSA in PBS, the biotinylated peptides were individually added into the avidin coated wells and incubated for 30 min at room temperature. The serial diluted antibody G4, S16 and S6 at the initial concentration at 10 μg/ml were then transferred into the wells followed by adding mouse anti human IgG-HRP conjugate (Pierce). Detection was accomplished by adding 50 μl of tetramethylbenzidine (TMB) substrate (KPL) and the absorbance was read at […]. The peptides used were amino acids: 46-63; 61-78; 76-93; 91-108; 106-123; 136-153; 151-168; 166-183; 179-185; 181-198; and 196-215.

[3] = biological target: T2, recombinant HMG1 binding to RAGE-Fc (Homo sapiens, UniProt P09429); experiment: HMG1 binding to RAGE-Ig by ELISA; conditions: at the concentrations tested
T2 construct: made in house; host or cells: E. coli (HMG1)
T2 sequence (P09429 1-215): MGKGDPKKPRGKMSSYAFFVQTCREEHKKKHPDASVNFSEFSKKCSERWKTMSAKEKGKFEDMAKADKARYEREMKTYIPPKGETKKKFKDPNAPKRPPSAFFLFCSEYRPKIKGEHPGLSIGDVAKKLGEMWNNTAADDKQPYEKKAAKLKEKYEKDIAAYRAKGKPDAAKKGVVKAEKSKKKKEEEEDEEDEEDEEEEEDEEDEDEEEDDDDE
Protocol: HMG1 binding to RAGE-Ig by ELISA: 50 μl/well of RAGE-Fc fusion protein at 5 μg/ml in PBS was added to each well of an ELISA plate and incubated overnight at 4° C. The plate was then blocked with 200 μl of 5% milk at 37° C. for 1 hr and washed 3× with PBS/Tween. 50 μl/well of diluted HMGB1 solution. For dose curves, HMGB1 concentrations started at 4 ug/ml in PBS. For antibody blocking the HMGB1 was preincubated in another plate with human anti-HMG1 antibodies or buffer, then transferred to the RAGE-coated plate. The plates were then incubated at room temperature for 2 hours and washed 3×. To detect any HMG1 bound to the immobilized RAGE-Fc a mixture of biotinylated mouse anti-HMG1 mAbs (10D4, 4H11, 3E10 and 5C12) each at 1 ug/ml, total Ab: 4 ug/ml, were added to each well and the plate was incubated for 1 hour at room temperature. The plate was then washed and Strepavidin-HPR was added to each well and incubated 15 min. The plate was then washed 3× and blotted dry. 100 μl of TMB developing agent was added and the plate read at 650 nm. Values were calculated as percent of inhibition with HMG1 alone equal to 0% inhibition. The data in FIG. 9 and summarized in Table 1 represent the average of two separate experiments.

recombinant HMG1 = biological target: T3, recombinant HMG1 (Homo sapiens, UniProt P09429); experiment: HMG1 binding affinity via BIAcore analysis
T3 construct: made in house; host or cells: E. coli
T3 sequence (P09429 1-215): T2 sequence (P09429 1-215)
Protocol: HMG1 Binding Affinity via BIAcore Analysis: All experiments were performed on a BIAcore 3000 instrument (BIAcore, Inc., Piscataway, N.J.). Briefly, each mAb was immobilized to a CM5 sensor chip using a standard amino coupling chemistry. Separately a reference (control) flow cell was also prepared. Two-fold, serial dilutions of HMG1 in instrument buffer were sequentially injected at a slow flow rate over the individual mAb and reference flow-cell surfaces. Following the binding and dissociation of HMG1, the mAbs surfaces were regenerated with a brief pulse of 1M NaCl-50 mM NaOH. At the end of each experiment, the binding curves were evaluated using a steady-state model available through the BIA evaluation software supplied by BIAcore, Inc. (Piscataway, N.J.).

HMG1 peptides [4] = biological target: T4, HMG1 peptides (Homo sapiens, UniProt P09429); experiment: HMG1 B Box and peptide mapping ELISA; assay type: binding; conditions: B Box peptide ELISA; remark: listed apart in the source
T4 sequence (P09429 150-183): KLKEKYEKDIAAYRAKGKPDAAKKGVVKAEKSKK
Protocol: as §1

Molecule	block of IL-6 release induced by native activated HMG1 [1]	binding to HMG1 peptide 91-169 (HMG1 peptides [2])	block of recombinant HMG1 binding to RAGE [3]	Kd (recombinant HMG1) [nM]	binding to HMG1 peptide 150-183 (HMG1 peptides [4])
B1	able to block IL-6 released induced by native activated HMG1				
B2	able to block IL-6 released induced by native activated HMG1	bind to HMG1 peptide 91-169	significant ability to block the binding of HMG1 to RAGE		
B3			do not at the concentrations tested	114	
B4		do not bind either of the HMG1 B Box peptides	significant ability to block the binding of HMG1 to RAGE		do not bind either of the HMG1 B Box peptides
B5		bind to HMG1 peptide 91-169	do not at the concentrations tested		only S12 binds to HMG1 peptide 150-183
B6	less effective	do not bind either of the HMG1 B Box peptides	did not inhibit RAGE binding; also recorded: do not at the concentrations tested		do not bind either of the HMG1 B Box peptides
B7		do not bind either of the HMG1 B Box peptides	significant ability to block the binding of HMG1 to RAGE	101	do not bind either of the HMG1 B Box peptides
